Ten molecules from publication PMC3738515, “HLA-DO as the Optimizer of Epitope Selection for MHC Class II Antigen Presentation” (PLoS ONE, 2013) can be followed below.

Read-outs that look alike come from different tables or passages of the source. No end group written: not given here.

The target in assay [1] is T1, HLA-DR1 (DR1) (Homo sapiens, UniProt P01903+P01911, A100R/D57E/F55L/F60I/F76Y/I96L/L162R/M171V/P40L/Q125E/R42F/V115G/Y59C). Kind of assay: Dissociation of fluorescent peptide/DR1 complexes. Conditions: for DM sensitivity of DR1/peptide complex (dissociation in the presence of DM): 10 hours. In kind it is binding.
Assay [2] concerns the target T1, HLA-DR1 (DR1). Kind of assay: Fluorescent peptide association to soluble DR1 (spin-column separation, fluorescence read-out). In kind it is binding.
Assay [3] relates to Mags.DO5 monoclonal antibody. The experiment in a line: SPR binding to immobilized Mags.DO5 antibody surface. Here is the method: Purified DM/DO complexes were further evaluated by binding to anti-HA and anti-His antibody immobilized chip surfaces using BIAcore Surface Plasmon Resonance (SPR) instrument (Fig. 1C and D). […] To ensure that the observed binding was due to binding of DM/DO to Mags.DO5 mAb, we preincubated DM/DO complexes with soluble Mags.DO5 prior to injecting it over Mags.DO5 immobilized surface.
(SPR reads the build-up and loss of mass on a sensor chip optically.)

In a further assay the test system is HLA-DO (DO). The experiment in a line: SPR binding to DO captured on anti-His antibody surface. Details: species or system human. Conditions: soluble DM 4 µM injected over DO captured by anti-His antibody; pH 5.5, 27°C.
Assay [4] addresses soluble HLA-DR1 (human).
The target in assay [5] is recombinant soluble HLA-DO (human) (UniProt P06340). Kind of assay: SPR; DO (Ni-NTA purified) captured on anti-His antibody CM5 chip; analyte 4 µM; citrate-phosphate pH 5.5, 150 mM NaCl, 0.005% Tween-20; 27°C, 5–10 µL/min.
For assay [6], the target named is co-expressed DM/DO complex (human) (UniProt P06340). The experiment in a line: SPR.
A further assay has as its system HLA-DM (DM). The settings on record: DO solution 5 µM over DM captured by anti-FLAG antibody; pH 5.5, 27°C.
The target of assay [7] is soluble HLA-DR1 (human). Kind of assay: fluorescent peptide association kinetics (Sephadex G-50 spin column, fluorescence); DR1 or DR1βG86Y 1 µM with fluorescent peptide 30 µM, no accessory molecules; 37°C, citrate-phosphate buffer pH 5.0; up to 10 h; unbound peptide removed on G-50 spin columns.
Assay [8] deals with soluble HLA-DR1 (human). Kind of assay: fluorescent peptide association kinetics (Sephadex G-50 spin column, fluorescence); as a1 with 1 µM DM and 4 µM DO added.
The target in assay [9] is soluble HLA-DR1 (human). Kind of assay: fluorescent peptide association kinetics (Sephadex G-50 spin column, fluorescence); as a1 with 4 µM DO added.
Assay [10] addresses soluble HLA-DR1 (human). The experiment in a line: fluorescent peptide association kinetics (Sephadex G-50 spin column, fluorescence); as a1 with 1 µM DM added.

As for “CAGFKGEQGPKGEP [CII(259–273), derived from Type II Collagen peptide used to induce arthritis in mice models]”, the “Effect of DO (or DM+DO) on dissociation of peptide from DR1” value at HLA-DR1 (DR1) [1] (DO 4 µM, with or without DM 1 µM, 10 hour kinetic experiment, pH 5.0, 37°C) is “no effect”. Moreover, the “DM sensitivity of DR1/peptide complex (dissociation in the presence of DM)” value on HLA-DR1 (DR1) [1] (complexes formed over 3 days at 37°C, DM 1 µM, competing HA(306–318) 50 µM, pH 5.0, 37°C) was “DM-sensitivity”. Also, at HLA-DR1 (DR1) [2] (DR1 1 µM, fluorescent peptide 30 µM, 37°C, Citrate-Phosphate buffer pH 5.0, slope of linear fit of early data points (~1 hour), no accessory molecules), the “Observed initial binding rate, DR1 alone” value is reported as 500 Arbitrary Fluorescence Units min^−1. For the same molecule, on HLA-DR1 (DR1) [2] (DR1 1 µM, peptide 30 µM, DM 1 µM and DO 4 µM, 37°C, pH 5.0, initial rate over 1 hour), the “Observed initial binding rate, + DM and DO” value was 1002 Arbitrary Fluorescence Units min^−1. In addition, the “Observed initial binding rate, + DM” value at HLA-DR1 (DR1) [2] (DR1 1 µM, peptide 30 µM, DM 1 µM, 37°C, pH 5.0, initial rate over 1 hour) is 1593 Arbitrary Fluorescence Units min^−1. For the same molecule, the “Observed initial binding rate, + DO” value on HLA-DR1 (DR1) [2] (DR1 1 µM, peptide 30 µM, DO 4 µM, 37°C, pH 5.0, initial rate over 1 hour) is reported as 137 Arbitrary Fluorescence Units min^−1. The “Effect of DO on peptide binding to peptide-receptive DR1 (DR-receptive)” value at HLA-DR1 (DR1) [2] (DR1 pre-incubated with unlabeled HA(anchorless) for three days, no DM) is “reduced”.

In the case of “DM/DO: co-expressed soluble DM/DO complex purified by Ni-NTA or Mags.DO5”, the “SPR binding to Mags.DO5 mAb immobilized surface after preincubation with soluble Mags.DO5” value in assay [3] (DM/DO preincubated with soluble Mags.DO5 prior to injection) is “about 100 RU”. Besides, the “SPR binding to Mags.DO5 mAb immobilized surface” value in assay [3] (Ni-NTA purified DM/DO complexes, pH 5.5 running buffer, 27°C) was “approximately 600 RU”.

Take “DM: soluble HLA-DM purified on M2 FLAG affinity column”: in the assay on HLA-DO (DO), the “SPR binding of DM to captured DO” value came out at 490 RU.

In the assay with soluble HLA-DR1 (human) [4], H5N1-HA1(259–274) peptide returned an observed initial binding rate (+ DM and DO) (Arbitrary Fluorescence Units min^-1) of 2200; an observed initial binding rate (+ DM) (Arbitrary Fluorescence Units min^-1) of 665; an observed initial binding rate (+ DO) (Arbitrary Fluorescence Units min^-1) of 257.

For HA(306–318) peptide, in the assay with soluble HLA-DR1 (human) [4], the observed initial binding rate (+ DM and DO) (Arbitrary Fluorescence Units min^-1) was found to be 1780; the observed initial binding rate (+ DM) (Arbitrary Fluorescence Units min^-1) is 463; the observed initial binding rate (+ DO) (Arbitrary Fluorescence Units min^-1) was found to be 523.

Turning to “HA(306–318): derived from Texas 77 flu strain HA protein peptide; immunodominant HLA-DR1 binding peptide (CPKYVKQNTLKLAT)”, the “Effect of DO (or DM+DO) on dissociation of peptide from DR1” value in the assay with HLA-DR1 (DR1) [1] (pH 5) is “did not affect”. In the assay with HLA-DR1 (DR1) [1] (pH 5.0, 37°C), the “DM sensitivity of DR1/peptide complex (dissociation in the presence of DM)” value is “DM-resistant”. Further, in the assay with HLA-DR1 (DR1) [2], the “Effect of DO on peptide binding to peptide-receptive DR1 (DR-receptive)” value was “enhanced” and the “Enhancement of initial binding rate by DO compared to DR1 alone” value was 3–4 folds. In the assay with HLA-DR1 (DR1) [2] (pH 5), the “Effect of DO on maximum binding of peptide to DR1” value is given as “increasing the binding maxima”; the “Observed initial binding rate, + DM” value is recorded as 463 Arbitrary Fluorescence Units min^−1; the “Observed initial binding rate, + DM and DO” value is listed as 1779 Arbitrary Fluorescence Units min^−1; the “Observed initial binding rate, + DO” value is given as 523 Arbitrary Fluorescence Units min^−1. Also, the “Observed initial binding rate, DR1 alone” value with HLA-DR1 (DR1) [2] (pH 5) is listed as 132 Arbitrary Fluorescence Units min^−1.

Take “mutant DR1, DR1βG86Y (from UniProt P01903 26-216) (receptor)”: the response at 4 µM in assay [5] was 100 RU.

“soluble HLA-DR1 (from UniProt P01903 26-216) (receptor)”: the SPR binding response in assay [6] stood at 337 RU.

B1: DO: recombinant soluble HLA-DO heterodimer with leucine zipper, His- and HA-tags, expressed in Hi5 insect cells (protein)
chain 1: TKADHMGSYGPAFYQSYGASGQFTHEFDEEQLFSVDLKKSEAVWRLPEFGDFARFDPQGGLAGIAAIKAHLDILVERSNRSRAINVPPRVTVLPKSRVELGQPNILICIVDNIFPPVINITWLRNGQTVTEGVAQTSFYSQPDHLFRKFHYLPFVPSAEDVYDCQVEHWGLDAPLLRHWELQVPIPPPDAME
chain 2: TDSPEDFVIQAKADCYFTNGTEKVQFVVRFIFNLEEYVRFDSDVGMFVALTKLGQPDAEQWNSRLDLLERSRQAVDGVCRHNYRLGAPFTVGRKVQPEVTVYPERTPLLHQHNLLHCSVTGFYPGDIKIKWFLNGQEERAGVMSTGPIRNGDWTFQTVVMLEMTPELGHVYTCLVDHSSLLSPVSVEWRAQSEYSWRK
modifications: left off: leucine zipper (acidic or basic chain, which not stated; flanked by spacers), C-terminal, state not stated | His tag, C-terminal, kept | leucine zipper (acidic or basic chain, which not stat
For B1, the “SPR maximum binding of DO to immobilized DM” value in the assay on HLA-DM (DM) is 500 RU.

Turning to fluorescein-CAGFKGEQGPKGEP [CII(259–273) peptide], the observed initial binding rate (Arbitrary Fluorescence Units min^-1) with soluble HLA-DR1 (human) [7] was determined as 500. The molecule also showed an observed initial binding rate (+ DM and DO) (Arbitrary Fluorescence Units min^-1) in the assay with soluble HLA-DR1 (human) [8] of 1000. The molecule also had an observed initial binding rate (+ DO) (Arbitrary Fluorescence Units min^-1) in the assay with soluble HLA-DR1 (human) [9] of 137. In the assay with soluble HLA-DR1 (human) [10], this molecule yielded an observed initial binding rate (+ DM) (Arbitrary Fluorescence Units min^-1) of 1590.
